The values below are quoted from earlier work in PMC3789827.

The target in data set [1] is BMPR1A ECD (Homo sapiens) (UniProt P36894). In words: SPR (Biacore).
Data set [2] has as its target BMPR1B ECD (Homo sapiens) (UniProt O00238). In words: SPR (Biacore). A general note: Surface plasmon resonance follows binding to a sensor surface in real time, without labels.

Chain of GDF5 (P43026 382-501): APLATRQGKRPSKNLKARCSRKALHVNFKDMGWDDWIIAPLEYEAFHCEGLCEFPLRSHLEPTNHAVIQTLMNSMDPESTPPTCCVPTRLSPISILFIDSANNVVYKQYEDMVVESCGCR
Chain of BMPR1A ECD (Homo sapiens) (P36894 24-152): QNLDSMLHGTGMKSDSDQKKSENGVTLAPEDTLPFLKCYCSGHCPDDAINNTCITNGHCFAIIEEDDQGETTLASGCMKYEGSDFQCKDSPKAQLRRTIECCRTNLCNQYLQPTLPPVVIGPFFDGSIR
Chain of BMPR1B ECD (Homo sapiens) (O00238 14-126): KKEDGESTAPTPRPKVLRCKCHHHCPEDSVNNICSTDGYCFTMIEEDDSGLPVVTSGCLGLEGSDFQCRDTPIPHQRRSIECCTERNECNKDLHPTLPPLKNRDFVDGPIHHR

Broadly, the Kd is the equilibrium constant for the complex coming apart. Regarding GDF5 (from UniProt P43026), the Kd in data set [1] is 17 nM; in data set [2], 1.1 nM.
